For this test, the target named is yNap1 C200A/C249A/C272A labelled with Alexa dye at Cys-414 (yNap1m*) (yeast) (UniProt P25293). In words: other fluorescence titration.

As for linker histone H1 (natural protein), the dissociation constant (Kd) is 3 nM and the stoichiometry N (H1 per yNap1 dimer) came out at 2.

The term Kd denotes the free concentration of one partner at which half of the binding sites on the other are occupied at equilibrium, for simple one-to-one binding. A low value points to a tighter complex.
